B1: TPTE2 peptide 94-109 (Phosphatidylinositol 3,4,5-trisphosphate 3-phosphatase TPTE2), 16-mer library wild type / TLN1 PTB (TLN1 Phosphotyrosine-binding (PTB) domain, residues 309-401) (parent)
chain 1: DLIFTDSKLYIPLEYR
chain 2: GVSFFLVKEKMKGKNKLVPRLLGITKECVMRVDEKTKEVIQEWNLTNIKRWAASPKSFTLDFGDYQDGYYSVQTTEGEQIAQLIAGYIDIILK
B2: PAIP1 peptide 126-141 (Polyadenylate-binding protein-interacting protein 1), 16-mer library wild type / PABPC1 PABC (PABPC1 PABC domain, residues 544-623) (parent)
chain 1: SKLSVNAPEFYPSGYS
chain 2: PLTASMLASAPPQEQKQMLGERLFPLIQAMHPTLAGKITGMLLEIDNSELLHMLESPESLRSKVDEAVAVLQAHQAKEAA
B3: PEX5 peptide 238-253 (Peroxisomal targeting signal 1 receptor), 16-mer library wild type / PEX14 Pex14 (PEX14 PEX14, residues 16-84) (parent)
chain 1: AQAEQWAAEFIQQQGT
chain 2: TPGSENVLPREPLIATAVKFLQNSRVRQSPLATRRAFLKKKGLTDEEIDMAFQQSGTAADEPSSLGPAT

Variants of: B1
Assay: proteomic peptide phage display deep mutational scan (ProP-PD DMS): M13 P8 16-mer library selected against immobilised GST-tagged bait for four days (rounds), NGS of the eluted pools per day and pseudo-replica
Conditions: with TLN1 PTB (TLN1 Phosphotyrosine-binding (PTB) domain, residues 309-401); bait immobilised on MaxiSorp plates (10 µg), library pre-cleared on GST, 2 h binding at 4 °C, five washes; one round per day, days 1-4; value from days 2 and 3; keep out of graded; scale: average fractional NGS count over selection days 2 and 3

Screen value, by site and new letter:
chain 1 Y15: N 0.000999 | Q 0.00142 | G 0.000939 | A 0.00819 | R 4.1e-05 | S 0.00054 | F 0.000157 | P 0.00117 | D 0.00294 | K 0.000539 | I 0.00364 | V 0.000703
chain 1 K8: T 9.24e-05 | H 0.00014 | N 0.000705 | I 0 | S 0.00137 | E 0.000109 | A 0.0039 | D 0.00103 | M 0.000286 | Q 0.00121 | Y 9.03e-05
chain 1 L2: D 9.22e-05 | S 3.05e-05 | V 0.00592 | M 0.00204 | G 0.000486 | P 0.000184 | E 0.000516 | A 0.000378 | F 5.85e-05 | I 0.000173 | W 4.75e-05 | N 2.74e-05 | H 0.000178
chain 1 S7: N 0.000778 | T 6.44e-05 | D 0
chain 1 D6: A 3.11e-05 | S 0.000216 | Y 3.05e-05 | T 0.000144 | H 3.45e-05 | N 6.84e-05 | M 0 | E 0.000625 | W 3.79e-05 | G 0
chain 1 I3: S 0.000211 | Q 0.00339 | L 0.00133 | M 0.000353 | R 0.00161 | D 0.0027 | G 0.000109 | E 0.00388 | H 4.16e-05 | N 0.00121 | V 0.00384 | F 0.0002 | W 0.000147 | A 2.4e-05
chain 1 E14: Q 0.000195 | G 0.00107 | T 0.000246 | D 0.00114 | K 0.000193 | V 3.45e-05 | L 6.19e-05 | F 9.64e-05 | S 6.5e-05
chain 1 F4: T 0
chain 1 L9: A 0.00044 | G 0.000626 | I 0.000157 | N 0 | D 0 | T 2.4e-05 | R 0 | V 0.000711
chain 1 P12: W 0 | A 0
chain 1 I11: H 0.000432 | E 0.000129 | T 0.000474 | S 7.21e-05 | V 0.0012 | M 3.76e-05 | L 0.00308 | R 0.000323 | F 6.22e-05 | D 2.74e-05 | Q 7.15e-05
chain 1 T5: E 0.000584 | V 0.00155 | F 0.000105 | I 0.000118 | K 0 | W 4.49e-05 | Y 8.75e-05 | N 0.000128 | Q 0.00106 | H 5.61e-05 | L 0
chain 1 Y10: R 0
chain 1 L13: P 0.000483 | T 0.000339 | K 0.00129 | Q 0.000253 | I 0.00223 | G 0.000105 | V 4.1e-05 | S 0.0004 | M 0.00103 | R 0.000367 | E 5.82e-05 | A 0.0028
chain 1 D1: N 7.86e-05 | G 0.00013 | K 0 | E 0.000184 | W 4.41e-05 | T 0.000148 | P 0.00123 | A 9.19e-05 | Q 3.51e-05 | F 2.74e-05

Variants of: B2
Assay: as above
Conditions: with PABPC1 PABC (PABPC1 PABC domain, residues 544-623); bait immobilised on MaxiSorp plates (10 µg), library pre-cleared on GST, 2 h binding at 4 °C, five washes; one round per day, days 1-4; value from days 2 and 3; keep out of graded; scale: average fractional NGS count over selection days 2 and 3

Screen value, by site and new letter:
chain 1 Y15: R 0.00115 | K 0.00083 | L 0.000221 | S 0.00124 | N 0.000304 | F 0.000589 | M 4.17e-05 | Q 0.000411 | I 7.69e-05 | W 0.000396 | V 0.000741 | D 0.000552 | H 0.000264 | E 7.22e-05 | T 0.000348 | A 0.00116
chain 1 Y11: N 0.000309 | L 0.00117 | K 0.000481 | F 0.000586 | V 0.00109 | T 0.000142 | E 0.00111 | Q 0.00111 | D 0.000603 | S 0.000332 | G 0.000528 | A 0.000962 | R 0.000552 | M 0.00123 | W 0.000643 | I 0.000574 | H 0.000612
chain 1 S13: V 0.000104 | N 0.00287 | H 0.000367 | E 0.000161 | F 0.000556 | I 0.000936 | L 0.000235 | M 0.000419 | P 0 | Q 0 | Y 0.00035 | G 4.28e-05
chain 1 V5: Y 0 | N 0.000152 | K 0.000215 | H 0.000797 | S 0.00056 | G 9.64e-06 | M 0.000169 | P 0.00187 | R 0.000262 | Q 0.00077 | A 0.00035 | L 0.000898

Variants of: B3
Assay: as above
Conditions: with PEX14 Pex14 (PEX14 PEX14, residues 16-84); bait immobilised on MaxiSorp plates (10 µg), library pre-cleared on GST, 2 h binding at 4 °C, five washes; one round per day, days 1-4; value from days 2 and 3; keep out of graded; scale: average fractional NGS count over selection days 2 and 3

Screen value, by site and new letter:
chain 1 Q12: E 0 | M 0.00226 | S 0.00055 | L 0.000406 | W 0.000355 | T 0.000592 | P 0.000699 | A 0 | R 0 | F 0.000147 | G 0.000368 | K 0.000341 | V 0.000188
chain 1 Q14: D 0.000186 | F 0.000215 | I 0.00105 | H 0.000732 | T 0 | G 0.00214 | K 0 | S 0.00134 | E 0 | W 0.000797 | R 0.0013 | V 0.000266
chain 1 F10: W 0.00148 | I 0.000137 | H 0.014 | Q 0.000673 | Y 0.000488 | S 0.000175
chain 1 A8: M 0.0014 | V 0.00138 | S 0.000444 | D 0 | F 0.00013 | G 0.00272 | L 0.00137 | Q 0.00013 | W 0.00148 | R 0.000559 | P 0
chain 1 I11: T 0.000576 | D 0.00263 | W 0 | Q 0.00134 | H 0.00108 | G 0.000289 | F 0.000739 | S 0.000456 | E 0.00192 | Y 0.000717 | V 0 | K 0.000266 | P 0.00284
chain 1 E4: I 0.000318 | A 0.000155 | M 0.000893 | W 0.00183 | Y 0.000168 | G 0.00183 | K 0.00104 | V 0
chain 1 T16: P 0.000382 | E 0 | G 0 | A 0.000218 | S 0.000223 | D 0.000181 | N 0.000881 | L 0.000704 | M 0.000253 | Q 0.00068 | W 0.00013 | V 0.00206 | H 0.00132
chain 1 G15: V 0.000135 | D 0.000327 | Y 0 | K 0 | S 0.000212 | W 0.000703 | I 0 | R 0.000288
chain 1 E9: Q 0.000716 | M 0.000215 | S 0.000566 | D 0.00183 | G 0.000159 | T 0.00204 | K 0.0012 | A 0.00516 | I 0 | H 0.0023
chain 1 A7: N 0 | Y 0.00359 | D 0 | V 0 | R 0.00151 | F 0.000286 | G 0.00166 | L 0.00129 | I 0.000152 | S 0.00111 | H 0.00597
chain 1 Q13: H 0 | A 0.00172 | T 0.000335 | S 0 | Y 0.000125 | M 0.000454 | G 0.000627 | R 0.00284 | K 0 | L 0.00111 | F 0.000134 | D 0.000183
chain 1 Q2: P 0.00113 | T 0.000198 | R 7.71e-05 | A 0 | S 0.000758 | E 0 | N 7.71e-05
chain 1 A3: V 0.000366 | M 0.000674 | P 0.000153 | T 0.000152 | W 0 | Y 0.000443 | D 0.000241 | G 0.000791 | E 0.000385 | L 0 | I 0 | S 0.000376 | N 0.00244
chain 1 Q5: A 0.000195 | W 0 | H 0.000302 | T 0.00028 | K 0 | N 9.07e-05 | I 7.71e-05 | E 0 | F 0 | S 0.000207
chain 1 W6: F 0.000898 | L 0
